Common to all, as to settings: both partners purified
Test [1] addresses T1, C5a anaphylatoxin chemotactic receptor 1 (C5aR), wild type (human, UniProt P21730 1-350, sulfonated tyrosines (sulfonation detected by anti-sulfotyrosine Western blot; eliminated by the Y11F and Y14F mutations)).
T1 construct: human G protein-coupled C5a receptor (C5aR), wild type; also called C5aR^WT; wtC5aR; source: HEK-293S GnTI- cells (BacMam), purified (Ni-NTA, anti-Flag M1 resin, SEC), reconstituted in DOPC/CHS liposomes; not shown: His8, C-terminal, kept
T1 sequence (looked up): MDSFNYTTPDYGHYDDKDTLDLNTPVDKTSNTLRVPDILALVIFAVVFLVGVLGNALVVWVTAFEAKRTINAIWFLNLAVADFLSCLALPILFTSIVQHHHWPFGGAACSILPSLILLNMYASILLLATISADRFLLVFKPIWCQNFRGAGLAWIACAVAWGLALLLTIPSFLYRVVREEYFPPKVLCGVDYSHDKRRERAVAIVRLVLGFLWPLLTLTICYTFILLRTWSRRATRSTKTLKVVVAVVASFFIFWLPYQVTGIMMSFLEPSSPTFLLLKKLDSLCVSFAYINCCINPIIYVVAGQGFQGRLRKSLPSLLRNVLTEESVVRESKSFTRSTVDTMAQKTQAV
The test can be described thus: single-molecule force spectroscopy (FD-based AFM); ligand on the AFM tip (PEG27 linker, tris-NTA-Ni2+); receptor in DOPC/CHS liposomes adsorbed on mica; high loading rates only (10^5-10^7 pN/s); Friddle-Noy-de Yoreo fit, Kd calculated from dGbu; 20 mM HEPES, 300 mM NaCl, about 24 °C.

Test [2] has as its target T2, C5aRΔTyr mutant (Y11F and Y14F) (human, UniProt P21730 1-350, Y11F | Y14F).
T2 construct: human C5aR with the two sulfation-site tyrosines changed; A legend and the methods print the second mutation as F14F; also called C5aR-d2Y; source: HEK-293S GnTI- cells (BacMam), purified, reconstituted in DOPC/CHS liposomes
T2 sequence (looked up): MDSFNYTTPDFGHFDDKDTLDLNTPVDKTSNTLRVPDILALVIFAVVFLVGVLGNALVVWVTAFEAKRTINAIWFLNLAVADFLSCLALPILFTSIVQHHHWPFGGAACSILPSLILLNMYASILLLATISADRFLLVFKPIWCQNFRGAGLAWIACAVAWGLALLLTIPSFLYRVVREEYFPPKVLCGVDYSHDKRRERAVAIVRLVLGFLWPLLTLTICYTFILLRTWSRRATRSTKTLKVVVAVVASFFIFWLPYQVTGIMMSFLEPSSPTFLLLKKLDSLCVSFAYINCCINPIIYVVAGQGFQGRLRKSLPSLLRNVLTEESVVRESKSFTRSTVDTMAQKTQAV
The test is described as above.

The target of test [3] is T1, C5a anaphylatoxin chemotactic receptor …. The test can be described thus: single-molecule force spectroscopy (force-volume AFM + FD-based AFM); ligand on the AFM tip (PEG27 linker, tris-NTA-Ni2+); receptor in DOPC/CHS liposomes adsorbed on mica; low and high loading rates combined (10^2-10^7 pN/s); Friddle-Noy-de Yoreo fit, Kd calculated from dGbu; 20 mM HEPES, 300 mM NaCl, about 24 °C.

B1: complement C5a anaphylatoxin (ligand, UniProt P01031 678-751, looked up)
chain: TLQKKIEEIAAKYKHSVVKKCCYDGACVNNDETCEQRAARISLGPRCIKAFTECCVVASQLRANISHKDMQLGR
notes: C5a anaphylatoxin, 74-aa glycoprotein, cut product of complement C5; C-terminal residue R74; numbers count on: the mature C5a; Held on the AFM tip through a PEG27 linker and tris-NTA-Ni2+; also called C5a ligand; endogenous C5a ligand
In the case of B1, the Kd (in general, the equilibrium constant for the complex coming apart) in test [1] is around 0.001 µM; in test [2], around 20000 µM; in test [3], around 0.00609 µM.
